Measurements taken from article PMC10439913.
One block for each substance: values may come before it.

Legend:
[1] = target: Domain-11 of human M6P/IGF2R (D11), C-terminally His-tagged (human) (UniProt P11717); assay: radioligand binding; competition of cold ligand with [125I]-monoiodotyrosyl-Tyr2-IGF2 for immobilized D11; Kd of the tracer 2 nM
[2] = target: His-tagged IGFBP3 (UniProt P17936); assay: radioligand binding; saturation binding of 0-5 nM [125I]-monoiodotyrosyl-Tyr2-IGF2 to His-tagged IGFBP3 immobilized on a 96-well plate via neutravidin and Ni-NTA iBodies; 16 h at 5 °C, 100 mM HEPES pH 7.6, 100 mM NaCl, 1% BSA; nonspecific binding with 10 µM unlabeled IGF2
[3] = target: His-tagged IGFBP3 (UniProt P17936); assay: radioligand binding; saturation binding of 0-5 nM [125I]-monoiodotyrosyl-IGF2 to His-tagged IGFBP3 (25 ng/well) immobilized via neutravidin and Ni-NTA iBodies; 16 h at 5 °C, 100 mM HEPES pH 7.6, 100 mM NaCl, 1% BSA
[4] = target: mannose-6-phosphate/IGF2 receptor (M6P/IGF2R), native in R- cells (mouse (endogenous in R- cells)) (UniProt Q07113); assay: radioligand binding; saturation binding of 0-5 nM [125I]-monoiodotyrosyl-Tyr2-IGF2 to 14,000 R- cells per well; 16 h at 5 °C, 100 mM HEPES pH 7.6, 100 mM NaCl, 1% BSA; nonspecific binding with 10 µM unlabeled IGF2; one-site fit
[5] = target: IGFBP3:ALS complex, preformed on immobilized His-tagged ALS (UniProt P35858); assay: radioligand binding; saturation binding of 0-5 nM [125I]-monoiodotyrosyl-IGF2 to IGFBP3 (no His-tag, 25 ng/well) preformed in complex with His-tagged ALS (10 ng/well) immobilized via neutravidin and Ni-NTA iBodies; 16 h at 5 °C, 100 mM HEPES pH 7.6, 100 mM NaCl, 1% BSA
[6] = target: IGF1 receptor (IGF1R) (human) (UniProt P08069); assay: radioligand binding; competition of cold ligand with [125I]-iodotyrosyl-IGF1 for human IGF-1R on R+39 mouse fibroblasts; one-site fit; affinity relative to IGF1
[7] = target: His-tagged IGFBP3 (UniProt P17936); assay: radioligand binding; competition of cold ligand (10^-12-10^-6 M) with [125I]-monoiodotyrosyl-Tyr2-IGF2 (43,000 cpm) for His-tagged IGFBP3 immobilized via neutravidin and Ni-NTA iBodies; 16 h at 5 °C, HEPES pH 7.6; affinity relative to IGF2
[8] = target: Domain-11 of human M6P/IGF2R (D11) (human) (UniProt P11717); assay: radioligand binding; competition of cold ligand with [125I]-monoiodotyrosyl-Tyr2-IGF2 for immobilized D11 (as in ref. 33); affinity relative to IGF2
[9] = target: insulin receptor isoform B (IR-B) (human) (UniProt P06213); assay: radioligand binding; competition of cold ligand with [125I]-monoiodotyrosyl-TyrA14-insulin for human IR-B on transfected mouse fibroblasts; one-site fit; affinity relative to human insulin
[10] = target: IGFBP3:ALS complex, preformed on immobilized His-tagged ALS (UniProt P35858); assay: radioligand binding; competition of cold ligand (10^-12-10^-6 M) with [125I]-monoiodotyrosyl-Tyr2-IGF2 (43,000 cpm) for the IGFBP3:ALS complex immobilized through the His-tag of ALS; 16 h at 5 °C, HEPES pH 7.6; affinity relative to IGF2
[11] = target: mannose-6-phosphate/IGF2 receptor (M6P/IGF2R), native in R- cells (mouse (endogenous in R- cells)) (UniProt Q07113); assay: radioligand binding; competition of cold ligand (10^-12-10^-6 M) with [125I]-monoiodotyrosyl-Tyr2-IGF2 (43,000 cpm) for M6P/IGF2R on R- cells; 16 h at 5 °C, 100 mM HEPES pH 7.6, 100 mM NaCl, 1% BSA; affinity relative to IGF2
[12] = target: insulin receptor isoform A (IR-A) (human) (UniProt P06213); assay: radioligand binding; competition of cold ligand with [125I]-monoiodotyrosyl-TyrA14-insulin for human IR-A on whole IM-9 lymphocytes; one-site fit; affinity relative to human insulin
[13] = target: human IGF1 receptor in transfected mouse fibroblasts (R+39 cells) (human) (UniProt P08069); assay: radioligand binding; competition of cold ligand with [125I]-iodotyrosyl-IGF1 on R+39 cells (mouse fibroblasts with human IGF-1R); Kd by one-site fit, Kd of the tracer 0.2 nM
[14] = target: human insulin receptor isoform B (IR-B) in transfected mouse fibroblasts (human) (UniProt P06213); assay: radioligand binding; competition of cold ligand with [125I]-monoiodotyrosyl-TyrA14-insulin on mouse fibroblasts transfected with human IR-B; Kd by one-site fit, Kd of the tracer 0.3 nM
[15] = target: IGFBP3:ALS complex, preformed on immobilized His-tagged ALS (UniProt P35858); assay: radioligand binding; competition of cold ligand (10^-12-10^-6 M) with [125I]-monoiodotyrosyl-Tyr2-IGF2 for the IGFBP3:ALS complex immobilized through the His-tag of ALS; 16 h at 5 °C, 100 mM HEPES pH 7.6, 100 mM NaCl, 1% BSA; Kd of the tracer 5.9 nM
[16] = target: His-tagged IGFBP3 (UniProt P17936); assay: radioligand binding; competition of cold ligand (10^-12-10^-6 M) with [125I]-monoiodotyrosyl-Tyr2-IGF2 for His-tagged IGFBP3 immobilized on a 96-well plate via neutravidin and Ni-NTA iBodies; 16 h at 5 °C, 100 mM HEPES pH 7.6, 100 mM NaCl, 1% BSA
[17] = target: native M6P/IGF2R in R- cells (mouse embryonic fibroblasts) (mouse (endogenous in R- cells)) (UniProt Q07113); assay: radioligand binding; competition of cold ligand (10^-12-10^-6 M) with [125I]-monoiodotyrosyl-Tyr2-IGF2 on R- cells; 16 h at 5 °C, 100 mM HEPES pH 7.6, 100 mM NaCl, 1 mM EDTA, 1% BSA; Kd of the tracer 8.2 nM
[18] = target: human insulin receptor isoform A (IR-A) in human IM-9 lymphocytes (human) (UniProt P06213); assay: radioligand binding; competition of cold ligand with [125I]-monoiodotyrosyl-TyrA14-insulin on human IM-9 lymphocytes; Kd by one-site fit, Kd of the tracer 0.3 nM

Domain-11 of human M6P/IGF2R (D11), C-terminally His-tagged (human), sequence (P11717 41-2491): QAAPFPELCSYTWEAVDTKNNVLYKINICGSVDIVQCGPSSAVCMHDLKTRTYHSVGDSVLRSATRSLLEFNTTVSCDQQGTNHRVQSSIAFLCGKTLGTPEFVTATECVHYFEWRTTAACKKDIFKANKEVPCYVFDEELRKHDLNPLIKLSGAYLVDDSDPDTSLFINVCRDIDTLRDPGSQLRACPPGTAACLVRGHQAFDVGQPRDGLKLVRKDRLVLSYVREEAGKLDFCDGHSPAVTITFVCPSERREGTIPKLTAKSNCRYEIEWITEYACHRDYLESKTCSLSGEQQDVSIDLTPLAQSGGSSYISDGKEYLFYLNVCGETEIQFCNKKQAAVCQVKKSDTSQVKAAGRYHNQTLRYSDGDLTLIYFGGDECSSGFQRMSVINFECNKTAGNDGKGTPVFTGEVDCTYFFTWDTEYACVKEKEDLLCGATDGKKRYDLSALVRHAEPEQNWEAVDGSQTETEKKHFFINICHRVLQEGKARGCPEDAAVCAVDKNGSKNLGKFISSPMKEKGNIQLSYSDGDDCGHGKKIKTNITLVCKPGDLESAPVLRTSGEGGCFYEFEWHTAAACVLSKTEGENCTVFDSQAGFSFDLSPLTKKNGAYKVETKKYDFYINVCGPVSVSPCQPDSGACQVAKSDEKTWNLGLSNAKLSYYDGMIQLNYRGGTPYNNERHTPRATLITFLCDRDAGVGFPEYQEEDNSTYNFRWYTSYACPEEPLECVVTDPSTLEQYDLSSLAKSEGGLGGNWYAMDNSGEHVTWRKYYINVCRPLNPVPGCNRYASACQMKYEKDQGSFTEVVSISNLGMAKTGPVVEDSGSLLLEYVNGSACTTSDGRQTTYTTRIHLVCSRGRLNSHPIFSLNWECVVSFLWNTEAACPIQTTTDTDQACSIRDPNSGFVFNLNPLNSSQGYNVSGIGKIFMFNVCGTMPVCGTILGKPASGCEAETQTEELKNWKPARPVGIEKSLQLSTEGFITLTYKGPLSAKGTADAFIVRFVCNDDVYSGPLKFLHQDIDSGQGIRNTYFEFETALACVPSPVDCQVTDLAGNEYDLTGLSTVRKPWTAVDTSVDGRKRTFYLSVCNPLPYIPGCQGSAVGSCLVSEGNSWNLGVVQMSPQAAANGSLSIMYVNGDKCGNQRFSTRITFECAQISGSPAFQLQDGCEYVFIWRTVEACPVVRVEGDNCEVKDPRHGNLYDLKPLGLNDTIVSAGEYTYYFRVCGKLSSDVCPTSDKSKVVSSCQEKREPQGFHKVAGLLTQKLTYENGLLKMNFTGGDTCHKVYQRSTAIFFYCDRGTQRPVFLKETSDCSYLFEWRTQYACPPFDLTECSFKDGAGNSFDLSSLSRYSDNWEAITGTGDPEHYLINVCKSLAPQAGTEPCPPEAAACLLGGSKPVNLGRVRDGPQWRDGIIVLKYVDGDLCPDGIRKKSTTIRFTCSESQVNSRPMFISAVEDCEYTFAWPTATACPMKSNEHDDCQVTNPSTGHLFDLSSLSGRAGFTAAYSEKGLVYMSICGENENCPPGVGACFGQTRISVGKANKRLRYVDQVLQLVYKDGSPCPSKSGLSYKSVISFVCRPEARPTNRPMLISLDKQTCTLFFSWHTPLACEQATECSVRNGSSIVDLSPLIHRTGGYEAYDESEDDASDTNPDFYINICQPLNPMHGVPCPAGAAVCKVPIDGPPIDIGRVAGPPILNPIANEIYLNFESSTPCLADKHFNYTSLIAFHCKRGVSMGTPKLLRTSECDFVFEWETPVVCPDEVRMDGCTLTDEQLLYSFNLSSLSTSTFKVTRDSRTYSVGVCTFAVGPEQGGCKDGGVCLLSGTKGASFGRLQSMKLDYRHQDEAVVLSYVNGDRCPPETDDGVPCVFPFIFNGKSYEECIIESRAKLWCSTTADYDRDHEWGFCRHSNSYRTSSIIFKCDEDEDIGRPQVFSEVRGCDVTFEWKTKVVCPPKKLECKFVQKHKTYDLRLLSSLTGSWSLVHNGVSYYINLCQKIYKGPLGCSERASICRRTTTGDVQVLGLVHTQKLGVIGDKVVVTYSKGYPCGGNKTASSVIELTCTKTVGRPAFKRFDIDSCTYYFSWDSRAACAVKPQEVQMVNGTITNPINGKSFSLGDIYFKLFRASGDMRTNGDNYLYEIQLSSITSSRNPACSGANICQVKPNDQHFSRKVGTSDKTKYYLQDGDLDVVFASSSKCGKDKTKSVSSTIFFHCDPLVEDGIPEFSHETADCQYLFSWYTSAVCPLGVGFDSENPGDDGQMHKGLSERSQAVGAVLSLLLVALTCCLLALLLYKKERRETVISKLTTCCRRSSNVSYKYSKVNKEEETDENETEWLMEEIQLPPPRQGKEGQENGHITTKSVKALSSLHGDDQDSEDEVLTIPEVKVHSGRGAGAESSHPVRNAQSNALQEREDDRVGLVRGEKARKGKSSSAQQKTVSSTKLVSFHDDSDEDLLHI
His-tagged IGFBP3, sequence (P17936 28-291): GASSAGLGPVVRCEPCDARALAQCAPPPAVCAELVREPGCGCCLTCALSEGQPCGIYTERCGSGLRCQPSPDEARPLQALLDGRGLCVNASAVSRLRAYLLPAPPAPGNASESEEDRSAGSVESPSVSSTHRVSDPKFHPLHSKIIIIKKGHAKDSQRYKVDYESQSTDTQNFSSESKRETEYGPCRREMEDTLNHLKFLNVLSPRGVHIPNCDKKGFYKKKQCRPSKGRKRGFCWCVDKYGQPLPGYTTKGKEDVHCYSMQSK
mannose-6-phosphate/IGF2 receptor (M6P/IGF2R), native in R- cells (mouse (endogenous in R- cells)), sequence (Q07113 36-2483): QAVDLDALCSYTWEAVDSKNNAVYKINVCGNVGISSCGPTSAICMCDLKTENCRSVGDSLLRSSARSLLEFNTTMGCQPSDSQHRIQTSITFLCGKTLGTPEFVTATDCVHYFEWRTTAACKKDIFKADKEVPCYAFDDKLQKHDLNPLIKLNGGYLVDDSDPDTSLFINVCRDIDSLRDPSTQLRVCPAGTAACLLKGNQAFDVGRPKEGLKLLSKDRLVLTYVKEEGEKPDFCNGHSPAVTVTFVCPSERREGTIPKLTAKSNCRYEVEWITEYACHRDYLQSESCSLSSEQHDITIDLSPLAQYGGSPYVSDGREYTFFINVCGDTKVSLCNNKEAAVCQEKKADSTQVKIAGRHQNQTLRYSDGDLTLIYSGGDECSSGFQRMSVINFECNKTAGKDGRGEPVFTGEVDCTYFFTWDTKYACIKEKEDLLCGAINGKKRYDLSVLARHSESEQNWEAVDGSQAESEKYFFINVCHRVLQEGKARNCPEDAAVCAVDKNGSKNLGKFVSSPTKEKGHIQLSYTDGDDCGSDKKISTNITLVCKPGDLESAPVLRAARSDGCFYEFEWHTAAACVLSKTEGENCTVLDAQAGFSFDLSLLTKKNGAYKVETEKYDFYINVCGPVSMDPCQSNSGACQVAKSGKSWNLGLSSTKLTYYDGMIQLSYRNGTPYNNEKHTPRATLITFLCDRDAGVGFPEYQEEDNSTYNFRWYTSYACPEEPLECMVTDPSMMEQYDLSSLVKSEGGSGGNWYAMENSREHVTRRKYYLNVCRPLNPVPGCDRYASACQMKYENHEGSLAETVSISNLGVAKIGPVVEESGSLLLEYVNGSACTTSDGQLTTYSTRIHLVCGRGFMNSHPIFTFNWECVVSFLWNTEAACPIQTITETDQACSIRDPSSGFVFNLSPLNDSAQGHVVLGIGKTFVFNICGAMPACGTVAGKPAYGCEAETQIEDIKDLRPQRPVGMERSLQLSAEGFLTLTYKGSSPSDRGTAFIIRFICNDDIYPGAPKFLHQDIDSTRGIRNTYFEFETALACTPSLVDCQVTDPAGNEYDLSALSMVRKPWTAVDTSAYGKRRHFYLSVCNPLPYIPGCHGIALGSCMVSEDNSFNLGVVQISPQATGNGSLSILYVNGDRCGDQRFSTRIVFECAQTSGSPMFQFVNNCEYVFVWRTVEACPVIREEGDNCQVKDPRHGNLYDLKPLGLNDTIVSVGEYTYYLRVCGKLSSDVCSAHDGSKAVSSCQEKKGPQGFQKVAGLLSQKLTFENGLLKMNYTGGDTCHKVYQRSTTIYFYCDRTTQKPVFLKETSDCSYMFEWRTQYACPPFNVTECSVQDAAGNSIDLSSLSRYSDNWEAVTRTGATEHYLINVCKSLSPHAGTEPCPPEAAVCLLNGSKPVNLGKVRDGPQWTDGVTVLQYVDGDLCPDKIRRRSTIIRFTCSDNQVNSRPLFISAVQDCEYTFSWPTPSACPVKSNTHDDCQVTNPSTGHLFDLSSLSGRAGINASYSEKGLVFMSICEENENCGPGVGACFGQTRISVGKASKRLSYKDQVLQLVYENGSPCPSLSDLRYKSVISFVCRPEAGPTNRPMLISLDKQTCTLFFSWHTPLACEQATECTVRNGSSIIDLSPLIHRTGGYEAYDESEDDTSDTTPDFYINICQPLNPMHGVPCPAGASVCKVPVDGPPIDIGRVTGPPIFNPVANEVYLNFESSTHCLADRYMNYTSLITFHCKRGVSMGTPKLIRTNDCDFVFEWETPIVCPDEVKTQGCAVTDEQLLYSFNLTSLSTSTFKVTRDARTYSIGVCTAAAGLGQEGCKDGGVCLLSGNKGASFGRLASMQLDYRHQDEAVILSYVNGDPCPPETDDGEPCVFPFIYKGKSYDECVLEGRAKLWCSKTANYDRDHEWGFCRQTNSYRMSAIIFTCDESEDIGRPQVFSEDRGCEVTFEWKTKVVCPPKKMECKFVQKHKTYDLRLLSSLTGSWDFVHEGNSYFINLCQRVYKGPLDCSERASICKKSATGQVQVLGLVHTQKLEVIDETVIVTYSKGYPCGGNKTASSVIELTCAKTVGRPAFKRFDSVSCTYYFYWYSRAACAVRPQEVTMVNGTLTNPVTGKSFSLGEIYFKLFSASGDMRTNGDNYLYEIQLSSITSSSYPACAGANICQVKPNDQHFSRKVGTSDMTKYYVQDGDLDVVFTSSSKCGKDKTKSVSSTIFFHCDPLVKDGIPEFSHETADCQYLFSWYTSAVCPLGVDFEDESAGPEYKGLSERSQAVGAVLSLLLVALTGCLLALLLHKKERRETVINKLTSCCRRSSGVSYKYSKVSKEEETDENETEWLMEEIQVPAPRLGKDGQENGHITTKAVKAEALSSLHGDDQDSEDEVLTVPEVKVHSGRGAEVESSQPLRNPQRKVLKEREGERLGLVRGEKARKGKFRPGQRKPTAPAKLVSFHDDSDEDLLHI

- Kd [2]: 0.59 nM
Substance: [125I]-monoiodotyrosyl-Tyr2-IGF2 (ligand)

- Kd [3]: 0.56 nM
- Kd [4]: 8.2 nM
- Kd [5]: 5.9 nM
Substance: [^125I]-monoiodotyrosyl-Tyr2-IGF2 (ligand)

- relative binding affinity (% of IGF1) [6]: 9.7%
- relative binding affinity (% of IGF2) [7]: 146%
- relative binding affinity (% of IGF2) [8]: 698%
- relative binding affinity (% of human insulin) [9]: 2.9%
- relative binding affinity (% of IGF2) [10]: 17%
- relative binding affinity (% of IGF2) [11]: 887%
- relative binding affinity (% of human insulin) [12]: 9.8%
Substance: big-IGF2(104) (ligand)

- Kd [1]: 2.31 nM
Substance: pro-IGF2(156), non-glycosylated (from UniProt P01344 25-180) (ligand)

More lines, now with the values behind:

Substance: Insulin-like Growth Factor-2 (IGF2), native mature 67-amino-acid protein (from UniProt P01344 25-91) (ligand)
- Kd [1]: 1.29 nM

Substance: big-IGF2(87) (ligand)
- relative binding affinity (% of IGF1) [6]: 14.8%
- relative binding affinity (% of IGF2) [7]: 70%
- relative binding affinity (% of IGF2) [8]: 73%
- relative binding affinity (% of human insulin) [9]: 2.7%
- relative binding affinity (% of IGF2) [10]: 58%
- relative binding affinity (% of IGF2) [11]: 227%
- relative binding affinity (% of human insulin) [12]: 7.1%

Substance: big-IGF2(87), non-glycosylated (ligand)
- Kd [1]: 1.77 nM
- Kd [13]: 1.6 nM
- Kd [14]: 9.47 nM
- Kd [15]: 1.63 nM
- Kd [16]: 0.29 nM
- Kd [17]: 0.56 nM
- Kd [18]: 3.82 nM

Substance: big-IGF2(104), non-glycosylated (ligand)
- Kd [1]: 0.19 nM
- Kd [13]: 2.48 nM
- Kd [14]: 8.83 nM
- Kd [15]: 5.58 nM
- Kd [16]: 0.14 nM
- Kd [17]: 0.14 nM
- Kd [18]: 2.75 nM
